Publication PMC11106421, “Myosin VI in the nucleolus of neurosecretory PC12 cells: its involvement in the maintenance of nucleolar structure and ribosome organization” (Frontiers in Physiology, 2024)
Blank lines part the entries; values can stand above or below the binder they belong to.

Target: T1, myosin VI (MVI), endogenous in PC12 cells (rat (endogenous in PC12), UniProt D4A5I9 1-1285)
T1 construct: myosin VI heavy chain, endogenous in PC12 cells; also called unconventional myosin VI; source: endogenous, PC12 cells (lysate or fixed cells)
Experiment: proximity ligation; Duolink in situ PLA on fixed PC12 cells, rabbit anti-MVI with mouse monoclonal antibodies to the partner; foci counted per nucleus
Settings: partners not purified

T1 sequence (D4A5I9 entry or part of it): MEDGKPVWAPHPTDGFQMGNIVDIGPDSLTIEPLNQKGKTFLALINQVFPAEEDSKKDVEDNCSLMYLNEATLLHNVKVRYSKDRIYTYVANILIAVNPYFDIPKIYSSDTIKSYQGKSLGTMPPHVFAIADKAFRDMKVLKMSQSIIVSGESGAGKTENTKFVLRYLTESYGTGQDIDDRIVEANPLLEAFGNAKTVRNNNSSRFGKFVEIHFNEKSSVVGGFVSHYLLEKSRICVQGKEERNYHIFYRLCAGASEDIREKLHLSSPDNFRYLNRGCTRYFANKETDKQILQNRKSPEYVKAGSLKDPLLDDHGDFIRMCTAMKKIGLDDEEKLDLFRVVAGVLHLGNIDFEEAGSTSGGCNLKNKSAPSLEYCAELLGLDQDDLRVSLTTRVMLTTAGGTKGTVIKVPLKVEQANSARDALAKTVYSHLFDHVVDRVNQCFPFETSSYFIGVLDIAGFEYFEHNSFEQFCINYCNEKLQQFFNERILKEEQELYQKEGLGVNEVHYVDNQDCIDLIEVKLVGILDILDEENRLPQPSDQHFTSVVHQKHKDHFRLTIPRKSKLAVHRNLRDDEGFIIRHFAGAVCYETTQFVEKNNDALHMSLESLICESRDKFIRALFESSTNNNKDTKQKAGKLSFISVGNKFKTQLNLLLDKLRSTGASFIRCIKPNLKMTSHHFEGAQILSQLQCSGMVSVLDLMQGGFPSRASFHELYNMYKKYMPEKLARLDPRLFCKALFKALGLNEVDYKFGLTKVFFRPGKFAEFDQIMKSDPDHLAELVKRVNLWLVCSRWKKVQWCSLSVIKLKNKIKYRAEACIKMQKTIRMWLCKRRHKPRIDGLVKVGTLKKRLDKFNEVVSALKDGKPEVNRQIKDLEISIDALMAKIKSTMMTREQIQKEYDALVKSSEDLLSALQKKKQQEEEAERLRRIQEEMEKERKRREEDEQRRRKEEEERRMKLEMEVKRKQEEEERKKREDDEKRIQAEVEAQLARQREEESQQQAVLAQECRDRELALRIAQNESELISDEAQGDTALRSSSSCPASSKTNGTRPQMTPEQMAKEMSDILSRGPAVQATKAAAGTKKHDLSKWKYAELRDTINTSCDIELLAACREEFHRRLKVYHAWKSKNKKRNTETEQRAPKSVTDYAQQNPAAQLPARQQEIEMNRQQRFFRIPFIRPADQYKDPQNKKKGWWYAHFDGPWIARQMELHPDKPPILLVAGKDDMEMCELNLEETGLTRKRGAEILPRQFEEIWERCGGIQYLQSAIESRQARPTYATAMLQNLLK

fraction of PLA foci-positive nuclei: ~57%
B1: B23 (also termed nucleophosmin, NPM1) (natural protein, rat (endogenous in PC12), UniProt P13084 1-292, looked up)
chain: MEDSMDMDMSPLRPQNYLFGCELKADKDYHFKVDNDENEHQLSLRTVSLGAGAKDELHIVEAEAMNYEGSPIKVTLATLKMSVQPTVSLGGFEITPPVVLRLKCGSGPVHISGQHLVAVEEDAESEDEDEEDVKLLGMSGKRSAPGGGNKVPQKKVKLDEDDDEDDEDDEDDEDDDDDDFDEEETEEKVPVKKSVRDTPAKNAQKSNQNGKDLKPSTPRSKGQESFKKQEKTPKTPKGPSSVEDIKAKMQASIEKGGSLPKVEAKFINYVKNCFRMTDQEAIQDLWQWRKSL
notes: B23 / nucleophosmin, endogenous in PC12 cells, detected with a mouse monoclonal anti-B23 antibody; source: endogenous, PC12 cells (lysate or fixed cells)

fraction of PLA foci-positive nuclei: ~65%
B2: fibrillarin (natural protein, rat (endogenous in PC12), UniProt P22509 1-327, looked up)
chain: MKPGFSPRGGGFGGRGGFGDRGGRGGGRGGRGGFGGGRGGFGGGGRGRGGGGGGFRGRGGGGGRGGGFQSGGGRGRGGGRGGKRGNQSGKNVMVEPHRHEGVFICRGKEDALVTKNLVPGESVYGEKRVSISEGDDKIEYRAWNPFRSKLAAAILGGVDQIHIKPGAKVLYLGAASGTTVSHVSDIVGPDGLVYAVEFSHRSGRDLINLAKKRTNIIPVIEDARHPHKYRMLIAMVDVIFADVAQPDQTRIVALNAHTFLRNGGHFVISIKANCIDSTASAEAVFASEVKKMQQENMKPQEQLTLEPYERDHAVVVGVYRPPPKAKN
notes: fibrillarin, endogenous in PC12 cells, detected with a mouse monoclonal anti-fibrillarin antibody; source: endogenous, PC12 cells (lysate or fixed cells)

fraction of PLA foci-positive nuclei: ~36%
B3: UBF (upstream binding factor) (natural protein, rat (endogenous in PC12), UniProt P25977 1-764, looked up)
chain: MNGEADCPTDLEMAAPKGQDRWSQEDMLTLLECMKNNLPSNDSSKFKTTESHMDWEKVAFKDFSGDMCKLKWVEISNEVRKFRTLTELILDAQEHVKNPYKGKKLKKHPDFPKKPLTPYFRFFMEKRAKYAKLHPEMSNLDLTKILSKKYKELPEKKKMKYIQDFQREKQEFERNLARFREDHPDLIQNAKKSDIPEKPKTPQQLWYTHEKKVYLKVRPDATTKEVKDSLGKQWSQLSDKKRLKWIHKALEQRKEYEEIMRDYIQKHPELNISEEGITKSTLTKAERQLKDKFDGRPTKPPPNSYSLYCAELMANMKDVPSTERMVLCSQQWKLLSQKEKDAYHKKCDQKKKDYEVELLRFLESLPEEEQQRVLGEEKMLNINKKQTTSPASKKPSQEGGKGGSEKPKRPVSAMFIFSEEKRRQLQEERPELSESELTRLLARMWNDLSEKKKAKYKAREAALKAQSERKPGGEREDRGKLPESPKRAEEIWQQSVIGDYLARFKNDRVKALKAMEMTWNNMEKKEKLMWIKKAAEDQKRYERELSEMRAPPAATNSSKKMKFQGEPKKPPMNGYQKFSQELLSNGELNHLPLKERMVEIGSRWQRISQSQKEHYKKLAEEQQRQYKVHLDLWVKSLSPQDRAAYKEYISNKRKNMTKLRGPNPKSSRTTLQSKSESEEDDDEEDDDDDDEEEEEDDENGDSSEDGGDSSESSSEDESEDGDENEDDDDDEDDDEDDDEDEDNESEGSSSSSSSSGDSSDSDSN
notes: source: endogenous, PC12 cells (lysate or fixed cells)
